Source: patent US20240115683A1 (ULTRAGENYX PHARMACEUTICAL, published 2024)

Target: T1, human FGF23 (fibroblast growth factor 23) (human, UniProt Q9GZV9 25-251)
T1 construct: In the total FGF23 ECLA the FGF23 was recombinant human FGF23 (standards) and endogenous FGF23 in patient serum (samples); It may include the signal peptide; also called recombinant human FGF23; rhFGF23
T1 sequence: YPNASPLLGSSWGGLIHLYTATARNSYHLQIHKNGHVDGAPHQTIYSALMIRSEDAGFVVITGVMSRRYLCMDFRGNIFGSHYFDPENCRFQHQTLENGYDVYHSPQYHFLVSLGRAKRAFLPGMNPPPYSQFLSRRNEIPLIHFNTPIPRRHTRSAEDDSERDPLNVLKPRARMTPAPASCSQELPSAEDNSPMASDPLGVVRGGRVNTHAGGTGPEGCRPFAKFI
Assay: total FGF23 ECLA; rhFGF23 standards and serum samples incubated with excess KRN23, complex detected
Method: The mean values of serum total intact FGF23 levels at Baseline were recorded. The total FGF23 ECLA assay measures endogenous FGF23 in the presence of KRN23, whether complexed or unbound in serum. Standards (recombinant human FGF23 [rhFGF23]) and samples are incubated with excess amounts of KRN23 in a buffer matrix then detected by the assay. The assay measures the KRN23/FGF23 complex, which represents all endogenous FGF23 in the sample.

binding result: binds
B1: KRN23 (antibody, human IgG1, kappa, V domains shown)
VH: QVQLVQSGAEVKKPGASVKVSCKASGYTFTNHYMHWVRQAPGQGLEWMGIINPISGSTSNAQKFQGRVTMTRDTSTSTVYMELSSLRSEDTAVYYCARDIVDAFDFWGQGTMVTVSS
VL: AIQLTQSPSSLSASVGDRVTITCRASQGISSALVWYQQKPGKAPKLLIYDASSLESGVPSRFSGSGSGTDFTLTISSLQPEDFATYYCQQFNDYFTFGPGTKVDIKR
notes: also called anti-FGF23 antibody KRN23; recombinant fully human monoclonal IgG1 antibody
